Laboratory results as given in article PMC11236177.

What was measured:
[1] = biological target: recombinant PfPKG quintuple mutant STmut (Plasmodium falciparum) (UniProt Q8I719)
[2] = biological target: recombinant wild-type PfPKG (Plasmodium falciparum) (UniProt Q8I719)

Work on PKAtide (peptide) yielded a PKAtide concentration at half maximal velocity (Km), ParM-ADP real-time fluorescence kinase assay [1] of 13 µM and a PKAtide concentration at half maximal velocity (Km), ParM-ADP real-time fluorescence kinase assay [2] of 10 µM.
